± gives the standard deviation of the averaged measurements.
test system: Saccharomyces cerevisiae; assay: protein stability index of tFT-peptide fusion (C-terminal peptide) (PSI (0-1 scale)); higher = more stable (slower turnover); details: genetic background: wild type; temperature: 30 C
Experimental: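 MPS profiling in S. cerevisiae of the tFT-X12 degron library: putative degron peptides plus stable controls, 12 aa, fused to the C-terminus of a sfGFP-mCherry timer. Cells are FACS-sorted into 8 mCherry/sfGFP bins and deep-sequenced. PSI runs from 0 (unstable) to 1 (stable). Backgrounds are wild type, das1Δ and doa10Δ at 30 °C, and wild type, das1Δ, cdc34-1 and cdc53-1 at 37 °C; 2-3 technical replicates each.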
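Further: PSI is a weighted mean of sequencing reads over stability bins, variants kept only with over 10 reads, mCherry proximal and sfGFP distal, peptide attached via GGGS linker.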

| Sequence | protein stability index |
| --- | --- |
| LIICRSFLCKVR | 0.174 ± 0.023 |
| LILIVVVAGSVG | 0.23 ± 0.013 |
| LIMIRLLYLRLI | 0.0628 ± 0.033 |
| LINHSWLLLSVL | 0.133 ± 0.018 |
| LLCSLGFRFSLF | 0.328 ± 0.044 |
| LLFGCLIRIGCS | 0.253 ± 0.03 |
| LLILSVRPFVFV | 0.367 ± 0.025 |
| LLLALLFWPCPI | 0.39 ± 0.038 |
| LLLIGISFLIFY | 0.21 ± 0.025 |
| LLLTAIRVLRMH | 0.149 ± 0.037 |
| LLLVCYSTFIVA | 0.28 ± 0.014 |
| LLLVPLLAFSAS | 0.46 ± 0.019 |
| LLMFWLSIWFWG | 0.233 ± 0.037 |
| LLPYSLSLALRA | 0.28 ± 0.027 |
| LLSFSQLGYFVL | 0.152 ± 0.039 |
| LLSGHFRLLLAF | 0.0945 ± 0.014 |
| LLVCLGYFLFLG | 0.288 ± 0.051 |
| LNVEEGGGLENV | 0.637 ± 0.044 |
| LPHPLPFCFSLY | 0.451 ± 0.025 |
| LPLLLFYLPIIW | 0.389 ± 0.034 |

| Sequence | protein stability index |
| --- | --- |
| LPPFLSSLPSSP | 0.663 ± 0.011 |
| LPPSPPAPLSRL | 0.801 ± 0.019 |
| LQIKSFTSQRLA | 0.0902 ± 0.037 |
| LRFMLLSFLVIL | 0.176 ± 0.022 |
| LRFVCALGYCVW | 0.461 ± 0.029 |
| LRNVPCLVFFWV | 0.384 ± 0.03 |
| LRSVLGWGLFLA | 0.208 ± 0.021 |
| LSCFCLFCLSFC | 0.496 ± 0.015 |
| LSFLALLLFFRI | 0.372 ± 0.025 |
| LSGIILGWSVSG | 0.645 ± 0.0062 |
| LSLVYFAALFSF | 0.377 ± 0.043 |
| LSTPPLLPTPPS | 0.669 ± 0.014 |
| LSVMKLFVMVGP | 0.377 ± 0.029 |
| LSVSLFPIRYVG | 0.24 ± 0.02 |
| LVVIYPLLSSPV | 0.43 ± 0.022 |
| LWFFVGFAVYGG | 0.371 ± 0.0059 |
| LWFRGGYLFFVV | 0.185 ± 0.016 |
| LWVTRVYCLLVC | 0.0507 ± 0.015 |
| LYIQWVSRWSVQ | 0.415 ± 0.019 |
| LYLCLVSPVVVL | 0.204 ± 0.032 |

| Sequence | protein stability index |
| --- | --- |
| LYLGCVLFVLFR | 0.198 ± 0.024 |
| LYSVLWFCFPLV | 0.42 ± 0.024 |
| LYVLNILSFVCV | 0.117 ± 0.017 |
| MALAVRVVKCGA | 0.268 ± 0.034 |
| MCRMYELYVTSS | 0.374 ± 0.018 |
| MIILGFILYFFW | 0.347 ± 0.034 |
| NAPSAIQKNKKC | 0.281 ± 0.037 |
| NDSSWEVSLMVG | 0.62 ± 0.018 |
| NECLSSKWLRIC | 0.111 ± 0.039 |
| NFKELMEKSKYR | 0.665 ± 0.027 |
| NLTAIIYTLVVD | 0.225 ± 0.028 |
| NQIIRLIVGLLC | 0.224 ± 0.011 |
| PCLLRYLVHPFP | 0.667 ± 0.0086 |
| PCPAPRPPSPSA | 0.682 ± 0.023 |
| PDCRPPLVRCLL | 0.822 ± 0.035 |
| PFALTPPPSPRS | 0.366 ± 0.0092 |
| PFFCFLLFCFSL | 0.419 ± 0.027 |
| PFFLLAGITVAC | 0.15 ± 0.025 |
| PFLCLPFLLVSR | 0.363 ± 0.027 |
| PFPTPPPIPRSP | 0.696 ± 0.012 |

same assay, conditions: genetic background: wild type; temperature: 37 C

| Sequence | protein stability index |
| --- | --- |
| LIICRSFLCKVR | 0.317 ± 0.0052 |
| LILIVVVAGSVG | 0.385 ± 0.015 |
| LIMIRLLYLRLI | 0.102 ± 0.0037 |
| LINHSWLLLSVL | 0.1583 ± 0.00095 |
| LLCSLGFRFSLF | 0.546 ± 0.038 |
| LLFGCLIRIGCS | 0.3638 ± 0.00063 |
| LLILSVRPFVFV | 0.515 ± 0.022 |
| LLLALLFWPCPI | 0.518 ± 0.021 |
| LLLIGISFLIFY | 0.335 ± 0.052 |
| LLLTAIRVLRMH | 0.217 ± 0.033 |
| LLLVCYSTFIVA | 0.364 ± 0.0041 |
| LLLVPLLAFSAS | 0.598 ± 0.015 |
| LLMFWLSIWFWG | 0.3551 ± 0.0028 |
| LLPYSLSLALRA | 0.429 ± 0.015 |
| LLSFSQLGYFVL | 0.335 ± 0.027 |
| LLSGHFRLLLAF | 0.108 ± 0.02 |
| LLVCLGYFLFLG | 0.453 ± 0.022 |
| LNVEEGGGLENV | 0.699 ± 0.018 |
| LPHPLPFCFSLY | 0.6683 ± 0.0063 |
| LPLLLFYLPIIW | 0.4796 ± 0.0041 |

| Sequence | protein stability index |
| --- | --- |
| LPPFLSSLPSSP | 0.732 ± 0.013 |
| LPPSPPAPLSRL | 0.8571 ± 0.005 |
| LQIKSFTSQRLA | 0.0965 ± 0.038 |
| LRFMLLSFLVIL | 0.266 ± 0.01 |
| LRFVCALGYCVW | 0.574 ± 0.0089 |
| LRNVPCLVFFWV | 0.631 ± 0.049 |
| LRSVLGWGLFLA | 0.422 ± 0.0078 |
| LSCFCLFCLSFC | 0.669 ± 0.0017 |
| LSFLALLLFFRI | 0.357 ± 0.019 |
| LSGIILGWSVSG | 0.7292 ± 0.003 |
| LSLVYFAALFSF | 0.4858 ± 0.003 |
| LSTPPLLPTPPS | 0.6988 ± 0.0048 |
| LSVMKLFVMVGP | 0.479 ± 0.012 |
| LSVSLFPIRYVG | 0.453 ± 0.016 |
| LVVIYPLLSSPV | 0.562 ± 0.0072 |
| LWFFVGFAVYGG | 0.497 ± 0.058 |
| LWFRGGYLFFVV | 0.332 ± 0.0057 |
| LWVTRVYCLLVC | 0.0739 ± 0.015 |
| LYIQWVSRWSVQ | 0.5818 ± 0.003 |
| LYLCLVSPVVVL | 0.2571 ± 0.0014 |

| Sequence | protein stability index |
| --- | --- |
| LYLGCVLFVLFR | 0.312 ± 0.036 |
| LYSVLWFCFPLV | 0.55 ± 0.01 |
| LYVLNILSFVCV | 0.207 ± 0.0027 |
| MALAVRVVKCGA | 0.397 ± 0.0054 |
| MCRMYELYVTSS | 0.558 ± 0.016 |
| MIILGFILYFFW | 0.444 ± 0.018 |
| NAPSAIQKNKKC | 0.515 ± 0.08 |
| NDSSWEVSLMVG | 0.736 ± 0.028 |
| NECLSSKWLRIC | 0.147 ± 0.035 |
| NFKELMEKSKYR | 0.718 ± 0.012 |
| NLTAIIYTLVVD | 0.3944 ± 0.00021 |
| NQIIRLIVGLLC | 0.355 ± 0.02 |
| PCLLRYLVHPFP | 0.7159 ± 0.0025 |
| PCPAPRPPSPSA | 0.694 ± 0.014 |
| PDCRPPLVRCLL | 0.936 ± 0.019 |
| PFALTPPPSPRS | 0.52 ± 0.046 |
| PFFCFLLFCFSL | 0.5292 ± 0.0024 |
| PFFLLAGITVAC | 0.16 ± 0.0058 |
| PFLCLPFLLVSR | 0.47142 ± 0.0004 |
| PFPTPPPIPRSP | 0.7051 ± 0.0068 |

Reference: the supplement of paper PMC10724198
